Reference: paper PMC3293900, “Single Cycle Structure-Based Humanization of an Anti-Nerve Growth Factor Therapeutic Antibody” (PLoS ONE, 2012)

Assays:
[1] = target: T1, human Nerve Growth Factor (Homo sapiens, UniProt P01138); test: SPR; BIACore; rat mAb αD11 amine-coupled on CM5 chips (1025, 1040, 1280 RU); hNGF 0.29-37.5 nM injected in PBS with 0.005% Surfactant P20, 30 µl/min; triplicate; apparent constants; settings: both partners purified
T1 construct: human Nerve Growth Factor (beta-NGF), mature growth factor; also called hNGF; human NGF; source: obtained according to Covaceuszach et al. [77]
T1 sequence (P01138 122-241): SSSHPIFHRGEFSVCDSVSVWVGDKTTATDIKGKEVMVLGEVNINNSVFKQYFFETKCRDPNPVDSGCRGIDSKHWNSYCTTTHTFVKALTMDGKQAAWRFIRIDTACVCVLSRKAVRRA

[2] = target: T1, human Nerve Growth Factor; test: SPR; BIACore; hNGF amine-coupled on CM5 chips (89, 93, 100 RU); Fab hum-αD11 0.39-25 nM injected in HBSEP pH 7.4 with 100 µg/ml BSA, 50 µl/min; triplicate; apparent constants; settings: both partners purified

Row | Ka [1] | Kd [1] | Binder | Ka [2] | Kd [2]
1 | 2.21e+09 M⁻¹ | 0.451 ± 0.045 nM | rat anti-NGF monoclonal antibody (mAb) αD11 (antibody, V domains shown, VH of rat αD11; rat heavy chain constant region; the CH1 part is in PDB 1ZAN (Fab); light chain of rat αD11; whole light chain in PDB 1ZAN (Fab αD11); Whole rat IgG; also called parental mAb αD11; rat αD11) VH: QVQLKESGPGLVQPSQTLSLTCTVSGFSLTNNNVNWVRQATGRGLEWMGGVWAGGATDYNSALKSRLTITRDTSKSQVFLKMHSLQSEDTATYYCARDGGYSSSTLYAMDAWGQGTTVTVSA VL: DIQMTQSPASLSASLGETVTIECRASEDIYNALAWYQQKPGKSPQLLIYNTDTLHTGVPSRFSGSGSGTQYSLKINSLQSEDVASYFCQHYFHYPRTFGGGTKLELK | – | –
2 | – | – | Fab fragment of the humanized anti-NGF antibody hum-αD11 (Fab, V domains shown, as the VH of m3 (hum-αD11 VH); constant part of the Fab heavy chain; not described for the Fab provided by PanGenetics; as the Vκ of m3 (hum-αD11 Vκ); positions L46 and L87 mutated to the rat αD11 residue, Kabat numbering; constant part of the Fab light chain; also called Fab hum-αD11; source: kindly provided by PanGenetics UK Ltd) VH: EVQLVESGGGLVQPGGSLRLSCAASGFSLTNNNVNWVRQAPGKGLEWVGGVWAGGATDYNSALKSRFTISRDNSKNTAYLQMNSLRAEDTAVYYCARDGGYSSSTLYAMDAWGQGTLVTVSS VL: DIQMTQSPSSLSASVGDRVTITCRASEDIYNALAWYQQKPGKAPKLLIYNTDTLHTGVPSRFSGSGSGTDYTLTISSLQPEDFATYFCQHYFHYPRTFGQGTKVEIK | 3.4e+10 M⁻¹ | 0.0289 ± 0.0041 nM
